Results on one molecule are retold here after patent US20110044984A1 (Chugai, published 2011).

The assay addresses T1, extracellular domain of mouse AXL (mAXL-ECD; R&D) (mouse, UniProt Q00993 19-445).
T1 construct: extracellular domain; Bought protein
T1 sequence (looked up): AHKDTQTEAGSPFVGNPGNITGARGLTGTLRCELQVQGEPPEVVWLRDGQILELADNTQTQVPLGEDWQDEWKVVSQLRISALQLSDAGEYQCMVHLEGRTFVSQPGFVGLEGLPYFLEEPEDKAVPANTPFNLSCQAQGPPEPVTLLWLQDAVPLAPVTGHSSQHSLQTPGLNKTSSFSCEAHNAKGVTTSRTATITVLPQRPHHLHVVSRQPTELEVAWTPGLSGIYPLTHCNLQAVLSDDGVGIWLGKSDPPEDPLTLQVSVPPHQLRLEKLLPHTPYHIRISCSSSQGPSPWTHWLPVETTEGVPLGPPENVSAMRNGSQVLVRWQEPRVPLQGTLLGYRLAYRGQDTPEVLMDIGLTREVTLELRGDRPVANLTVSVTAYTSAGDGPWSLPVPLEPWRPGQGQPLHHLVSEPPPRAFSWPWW
As to the kind of experiment: ELISA, antibody at 3 µg/mL on coated mAXL-ECD. As to the method:
After the extracellular domain of mouse AXL (hereinafter referred to as mAXL-ECD; R&D) was diluted with coating buffer (100 mM sodium bicarbonate buffer, pH 9.6) to 2 μg/mL, 100 μL was dispensed into a 96-well plate (Nunc-Immuno™ 96 MicroWell™ MaxiSorp™ plates; Nalge Nunc International). After the plate was placed in a refrigerator overnight, the antibody solution in the plate was removed, 200 μL/well of diluent buffer (BlockingOne; Nacalai Tesque) was dispensed, and then blocked for two hours at room temperature. After the removal of the diluent buffer, the anti-AXL antibody prepared above diluted to 3 μg/mL with diluent buffer was dispensed at 100 μL/well, and allowed to stand for 1.5 hours at room temperature. After the removal of the antibody solution, the wells were washed three times with tPBS(−). […] After the removal of the antibody solution, the wells were washed three times with tPBS(−). 100 μL/well of alkaline phosphatase chromogenic substrate solution (BluePhos Microwell Phosphatase Substrate System, Kirkegaad & Perry Laboratories) was dispensed, followed by color development at room temperature. The absorbance at 650 nm was then measured with a microplate reader (Emax, Molecular Devices).
(In an ELISA, binding on a coated surface is turned into a signal by an enzyme label.)

B1: anti-AXL monoclonal antibody Ax225 (hybridoma AXL No. 225 #070402, Accession No. FERM BP-10854) (antibody, V domains shown)
VH: QVQLKQSGPGLVAPSQSLSITCTVSGLSLTSFGVDWVRQSPGKGLEWLGVIWGGGSTNYNSALKSRLSISKDNSKSQVFLKMNSLQTDDTAMYYCAGEGSKYGAWFAYWGQGTLVTVSS
VL: DVLMTQTPLSLPVSLGDQASISCRSSQNIVHTNGNTYLEWYLQKPGQSPELLIYKVSNRFSGVPDRFSGSGSGTDFTLKISRVEAEDLGVYYCFQGSHIPFTFGTGTKLEIK
notes: Mouse antibody from a hybridoma; Variable genes were amplified with constant region primers MHCg1 (H chain) and MLCk (L chain); also called AXL225 mouse antibody
For B1, the binding result is given as “binds”.
